# Values of other authors, collected in publication PMC3436762.
# Target: TRAIL (Homo sapiens) (UniProt P50591)
# Conditions: cited from earlier work
# Sequence of UniProt P50591 (P50591 whole entry): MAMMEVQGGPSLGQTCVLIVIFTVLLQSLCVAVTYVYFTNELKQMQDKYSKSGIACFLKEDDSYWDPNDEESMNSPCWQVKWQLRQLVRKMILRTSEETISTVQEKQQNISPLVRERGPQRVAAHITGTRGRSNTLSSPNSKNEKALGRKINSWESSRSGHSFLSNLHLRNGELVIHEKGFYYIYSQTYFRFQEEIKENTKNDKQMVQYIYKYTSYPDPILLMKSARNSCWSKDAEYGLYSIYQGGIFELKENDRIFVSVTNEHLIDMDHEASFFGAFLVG
substance,measurement,value
osteoprotegerin (from UniProt O00300),Kd,400 nM
